Reference: the supplement of paper PMC10724198
± gives the standard deviation of the averaged measurements.

System: Saccharomyces cerevisiae
Assay: protein stability index of tFT-peptide fusion (C-terminal peptide) (PSI (0-1 scale)); higher = more stable (slower turnover)
Conditions: genetic background: wild type; temperature: 30 C
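Further: PSI is a weighted mean of sequencing reads over stability bins, variants kept only with over 10 reads, mCherry proximal and sfGFP distal, peptide attached via GGGS linker.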

| Sequence | protein stability index |
| --- | --- |
| IACSLSSFSPVW | 0.687 ± 0.031 |
| TPVSTNHFYTLE | 0.613 ± 0.0094 |
| GVGCGGGGSSCA | 0.703 ± 0.11 |
| VWFFSHFCGVRF | 0.686 ± 0.012 |
| KTRTGMWDEQGV | 0.701 ± 0.016 |
| AQIGTKINTRKT | 0.599 ± 0.04 |
| PPAPRPPLFPYP | 0.697 ± 0.043 |
| ERANMSRGNQTE | 0.687 ± 0.025 |
| SWEIGHLLPGTD | 0.6671 ± 0.0048 |
| RRRPPPLPPPHL | 0.63 ± 0.015 |
| LPWCSTLEIRER | 0.694 ± 0.011 |
| LRSGRCFFVARL | 0.73 ± 0.068 |
| RATTDGGRGGRR | 0.696 ± 0.037 |
| WVWKRLTGQDGA | 0.668 ± 0.06 |
| GATLETPIGCGR | 0.666 ± 0.0074 |
| PPTHPPPRLTPL | 0.707 ± 0.081 |
| PPPPGKTDRPSH | 0.695 ± 0.055 |
| RGYSGSLSVVIY | 0.657 ± 0.057 |
| ARPGSVIAQLRV | 0.598 ± 0.031 |
| IRKNWQRIGETA | 0.662 ± 0.026 |
| YWLCITECHIRK | 0.541 ± 0.0092 |
| AIPLYAPSQPCE | 0.696 ± 0.027 |
| RQRGNMEIRIRR | 0.709 ± 0.027 |
| LPGLSRATTVYP | 0.679 ± 0.065 |
| RGILGAGGAGRG | 0.744 ± 0.079 |
| AQPPPPPAPTPS | 0.674 ± 0.093 |

| Sequence | protein stability index |
| --- | --- |
| GRAGLRIESSKY | 0.692 ± 0.024 |
| KQKKKRKSRRKK | 0.6504 ± 0.0033 |
| RGGPPPPPSITL | 0.851 ± 0.12 |
| RLPLPPSRLVKH | 0.671 ± 0.026 |
| SEICGAPLARLR | 0.707 ± 0.034 |
| KCSLVLTVARSY | 0.609 ± 0.014 |
| LLCRGLGSVGRR | 0.63 ± 0.18 |
| PPLPHPPLLAPP | 0.748 ± 0.15 |
| SCLRFCSFGSPF | 0.757 ± 0.12 |
| LCPPPRPPRSHL | 0.941 ± 0.039 |
| GIRAVRYFNSCC | 0.598 ± 0.011 |
| SNDTRKNKKRRT | 0.797 ± 0.084 |
| GLVSGGFYFGLL | 0.681 ± 0.054 |
| GISPDGSSIMAA | 0.689 ± 0.02 |
| MHLRFYFLKTDV | 0.597 ± 0.02 |
| GSGGVGVTSGGK | 0.682 ± 0.056 |
| RVGQINKFLPLE | 0.682 ± 0.071 |
| RVRASGIGRFVE | 0.625 ± 0.033 |
| GGGGGLRGRGVR | 0.682 ± 0.057 |
| GRVAPNANAVKF | 0.607 ± 0.07 |
| SRVLLPPQTLLL | 0.573 ± 0.035 |
| GSGLVTRTSLDY | 0.726 ± 0.045 |
| LPAPPPPPRPLA | 0.683 ± 0.021 |
| PPRPLAPSPTLF | 0.679 ± 0.021 |
| VLSGFICTILIP | 0.596 ± 0.038 |
| VSSFALDVGFHF | 0.638 ± 0.068 |

| Sequence | protein stability index |
| --- | --- |
| PNASPNPHRSNK | 0.708 ± 0.062 |
| TWGCAGAIRSVG | 0.689 ± 0.094 |
| DEEVGWGRGVGW | 0.72 ± 0.074 |
| VQNPVTTPQEQF | 0.684 ± 0.043 |
| GWCPNRRSGVWV | 0.7285 ± 0.0032 |
| PPWTNALMILLD | 0.689 ± 0.039 |
| GGSSVGALGCLC | 0.687 ± 0.0084 |
| FFLPLAYSSGSN | 0.659 ± 0.043 |
| LEYLGFSLSGFR | 0.724 ± 0.016 |
| TLGALEVSVYET | 0.614 ± 0.0097 |
| RRTDHQRAVREI | 0.731 ± 0.042 |
| LPHSNWAGRVIE | 0.703 ± 0.025 |
| IDLISENDNAVG | 0.709 ± 0.021 |
| SPPRPPAPPLLP | 0.676 ± 0.011 |
| STGACCGTVRLL | 0.642 ± 0.0085 |
| SFSPLRLPPSLL | 0.724 ± 0.049 |
| VAPPPAPFPPIP | 0.627 ± 0.023 |
| PPPPPLPRSSLS | 0.6968 ± 0.0041 |
| IWGSILGVEANV | 0.685 ± 0.039 |
| SLFRVAFLYVQV | 0.5406 ± 0.0018 |
| LDVFPVWSDANA | 0.714 ± 0.031 |
| EIKKKNPSTTRR | 0.663 ± 0.01 |
| LPPLPPLILFPL | 0.684 ± 0.082 |
| RFFGAVSFQFCL | 0.699 ± 0.011 |
| PLLVLSLRLSPP | 0.664 ± 0.013 |
| GGGGAGGGAGGG | 0.616 ± 0.042 |

| Sequence | protein stability index |
| --- | --- |
| NKQTKTQPTKKE | 0.725 ± 0.015 |
| DSQAEPGLSARL | 0.796 ± 0.059 |
| HPTSPDPLVTPL | 0.737 ± 0.068 |
| GGGWGWAGENTR | 0.698 ± 0.038 |
| SSPLRVLGPESG | 0.689 ± 0.062 |
| AITSPLGFGVLG | 0.717 ± 0.015 |
| SPRPDSVLLRSP | 0.723 ± 0.025 |
| FRQWCTEVYIEV | 0.531 ± 0.031 |
| DLRSSDPVAGSL | 0.623 ± 0.011 |
| ATVGVGSLLVKY | 0.747 ± 0.05 |
| FDACPAPFGLVV | 0.67033 ± 0.0004 |
| CRLTAWDESGSG | 0.673 ± 0.025 |
| GGDGGLVMGGGN | 0.684 ± 0.018 |
| SGGTDMLALRVR | 0.632 ± 0.062 |
| SPGLQPVACPSF | 0.639 ± 0.019 |
| LRSMLRCPSPLS | 0.759 ± 0.031 |
| KKNAHANKIGND | 0.639 ± 0.086 |
| HIPPPPRPSAPP | 0.69 ± 0.04 |
| RSRGSRNGKWVW | 0.703 ± 0.02 |
| PHPLPSHPLPPP | 0.738 ± 0.023 |
| TSSRHNEVIKGC | 0.706 ± 0.033 |
| DVKNMVWKTIEL | 0.6746 ± 0.0065 |
| ARSQGEKGGDVV | 0.692 ± 0.0072 |
